In patent US20190250145A1:

Legend:
[1] = target: I-IIC-CFluc (carboxyl terminal portion of luciferase attached to I-IIC domain of CaV1.2) [luciferase: P08659]; test: split firefly luciferase complementation in HEK cells
[2] = target: endogenous β-subunit of mouse heart (CaVβ) (mouse) (UniProt Q8CC27); test: cell-based or functional assay
[3] = target: GKC-CFluc (carboxyl terminal portion of luciferase attached to GKC) [luciferase: P08659]; test: split firefly luciferase complementation in HEK cells
[4] = target: endogenous β subunits of guinea pig ventricular cardiomyocytes (guinea pig); test: cell-based or functional assay

I-IIC-CFluc (carboxyl terminal portion of luciferase attached to I-IIC domain of CaV1.2) [luciferase: P08659], sequence (P08659 398-550): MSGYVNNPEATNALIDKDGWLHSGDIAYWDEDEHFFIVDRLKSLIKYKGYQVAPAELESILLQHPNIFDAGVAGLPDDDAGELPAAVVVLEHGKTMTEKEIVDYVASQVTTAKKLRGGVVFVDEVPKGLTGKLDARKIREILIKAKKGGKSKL
GKC-CFluc (carboxyl terminal portion of luciferase attached to GKC) [luciferase: P08659], sequence (P08659 398-550): as above
NFluc-NSH3 (amino terminal portion of luciferase attached to NSH3), sequence (P08659 1-416): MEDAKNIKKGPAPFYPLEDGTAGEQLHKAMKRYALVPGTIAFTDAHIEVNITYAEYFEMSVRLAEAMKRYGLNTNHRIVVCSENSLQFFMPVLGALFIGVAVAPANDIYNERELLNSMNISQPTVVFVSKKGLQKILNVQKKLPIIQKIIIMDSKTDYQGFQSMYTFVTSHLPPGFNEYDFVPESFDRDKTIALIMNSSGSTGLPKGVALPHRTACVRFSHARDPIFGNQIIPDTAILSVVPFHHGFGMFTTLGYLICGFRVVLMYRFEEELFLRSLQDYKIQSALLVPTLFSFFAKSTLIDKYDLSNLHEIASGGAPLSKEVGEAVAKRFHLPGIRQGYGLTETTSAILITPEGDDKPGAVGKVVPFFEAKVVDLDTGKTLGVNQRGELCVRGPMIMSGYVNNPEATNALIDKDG
CaVB-NFluc (amino terminal portion of luciferase attached to CaVB), sequence (P08659 2-416): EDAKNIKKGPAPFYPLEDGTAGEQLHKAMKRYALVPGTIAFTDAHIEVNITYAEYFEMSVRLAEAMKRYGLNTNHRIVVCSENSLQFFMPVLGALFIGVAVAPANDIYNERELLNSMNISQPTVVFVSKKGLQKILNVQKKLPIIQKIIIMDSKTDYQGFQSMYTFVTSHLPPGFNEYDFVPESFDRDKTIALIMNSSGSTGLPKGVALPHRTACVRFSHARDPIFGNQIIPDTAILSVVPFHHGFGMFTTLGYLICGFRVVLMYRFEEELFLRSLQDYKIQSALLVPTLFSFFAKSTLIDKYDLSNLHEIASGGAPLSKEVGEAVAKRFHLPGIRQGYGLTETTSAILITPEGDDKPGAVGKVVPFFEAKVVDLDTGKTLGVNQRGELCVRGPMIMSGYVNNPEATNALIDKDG

## CaVB-NFluc (amino terminal portion of luciferase attached to CaVB) (from UniProt P08659 2-416)
[1]
  bioluminescence signal, fold over negative control: 15 fold

## N-terminal 3×FLAG-tagged dihydropyridine (DHP)-resistant (T1066Y/Q1070M) AID-mutant rabbit α1C (from UniProt P15381 1-2171)
[2]
  increase in cardiac contractility by 200 nM isoproterenol (Langendorff hearts, nisoldipine present): 1.2 fold
  increase in contractility in response to isoproterenol (isolated hearts, nisoldipine present): 0 to 25%
  increase in fractional shortening by isoproterenol (cardiomyocytes, nisoldipine present): 25%

## NFluc-NSH3 (amino terminal portion of luciferase attached to NSH3) (from UniProt P08659 1-416)
[3]
  bioluminescence, fold over negative control cells: 70 fold

## YFP-tagged mutant (YWI/AAA) AID peptide
[4]
  increase in whole-cell current amplitude by 1 µM forskolin: 4 to 5 fold

## pseudo-wild-type (pWT) α1C: transgenic FLAG-tagged DHP-resistant α1C subunit with wild-type AID (from UniProt P15381 1-2171)
[2]
  increase in cardiac contractility by 200 nM isoproterenol (Langendorff hearts, nisoldipine present): 3.3 fold
  increase in fractional shortening by isoproterenol (cardiomyocytes, nisoldipine present): 100%
  increase of Ca2+ current by forskolin: 1.8 fold
  increase of nisoldipine-insensitive current by 200 nM isoproterenol: 1.9 fold
  shift of Vmid in the hyperpolarizing direction by 200 nM isoproterenol: 4.4 mV
